The labels stand for the following.
B1: PEX13 C-terminal peptide FxxxF to PEX5 W4 (domain or fragment)
chain: QQQSFTNPTLTKGATVADSLDEQEAAWYDEYVETNKVPVAPDSIGKDGEKQDL
B2: PEX14 NTD (1-104) (domain or fragment)
chain: MASSEQAEQPSQPSSTPGSENVLPREPLIATAVKFLQNSRVRQSPLATRRAFLKKKGLTDEEIDMAFQQSGTAADEPSSLGPATQVVPVQPPHLISQPYSPAGS
B3: PEX13 SH3-CTR (261-403) (domain or fragment)
chain: VTDSINWASGEDDHVVARAEYDFAAVSEEEISFRAGDMLNLALKEQQPKVRGWLLASLDGQTTGLIPANYVKILGKRKGRKTVESSKVSKQQQSFTNPTLTKGATVADSLDEQEAAFESVFVETNKVPVAPDSIGKDGEKQDL
B4: PEX13 FxxxF (350-403) (domain or fragment)
chain: KQQQSFTNPTLTKGATVADSLDEQEAAFESVFVETNKVPVAPDSIGKDGEKQDL

In test [1] the target is T1, PEX13 SH3 (261-346) (human, UniProt Q92968 261-346).
T1 sequence: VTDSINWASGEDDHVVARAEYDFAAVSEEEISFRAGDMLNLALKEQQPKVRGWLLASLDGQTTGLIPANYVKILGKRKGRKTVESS
The experiment in a line: ITC. (ITC needs no label: the signal is the heat of the interaction.)

The target in test [2] is B2. The experiment in a line: ITC.
Test [3] deals with B3. The test can be described thus: ITC.
In test [4] the target is B3. The experiment in a line: NMR titration.
Test [5] concerns the target T1, PEX13 SH3 (261-346). The test can be described thus: NMR titration.

For orientation: Kd means the equilibrium constant for the complex coming apart. What is called stoichiometry N is a count of units in the complex or per binding partner.

Take B1: in test [1], the Kd is about 6 µM and the “stoichiometry N” value came out at 1.

On to GTSDAWVDQFTRPVN [PEX5 W6], for which, in test [2], the binding result is reported as “binds”.

For AQAEQWAAEFIQQQG [PEX5 W5], the binding result in test [2] is listed as “binds”.

Consider B2, for which, in test [3], binding was put at a Kd of 5.4 µM.

On to TATDRWYDEYHPEED [PEX5 W4], for which, in test [2], binding was put at a Kd of 3.14 µM.

Take VSPARWAEEYLEQSE [PEX5 W3]: the binding result in test [2] is on record as “binds”.

Turning to TRVPPPILPRPSQ [PEX13 PxxP peptide (49-61)], the binding result in test [4] and in test [5] was “binds” each time.

For ALSENWAQEFLAAGD [PEX5 W1], the binding result in test [2] is “binds”.

B3: the “stoichiometry N” value in test [2] amounted to 1.

Consider B4, for which the dissociation constant Kd worked out at 2.8 µM in test [2] and 27 µM in test [1]. Further, the “stoichiometry N” value in test [2] was determined as 1.

Consider AEAHPWLSDYDDLTS [PEX5 W7], for which the binding result in test [2] was “binds”.

With YNETDWSQEFISEVT [PEX5 W2], the binding result in test [2] is reported as “binds”.

These data come from publication doi:10.1101/2022.12.19.520972 (bioRxiv, 2022).
